This note sets out measurements from publication doi:10.1101/2025.10.10.681541, “Visualizing the mechanism of quinol oxidation and inhibition of a bd-type oxidase using cryo-EM” (bioRxiv, 2025).

Series [1] concerns the molecule itself. Nature of the series: cryo-EM structure; purified Ecbd in LMNG micelles (unbound, Aurachin D bound) or in MSP1D1 PC nanodiscs doped with 5% menaquinone-9; monomeric and dimeric particles on the same grids.
The target in series [2] is T1, E. coli cytochrome bd-I subunit CydA (E. coli, UniProt P0ABJ9 1-522).
T1 construct: CydA, subunit of E. coli cytochrome bd-I (Ecbd); harbours hemes b558, b595 and d and the Q-loop; Co-expressed and co-purified with CydB, CydX and CydH; never isolated on its own
T1 sequence: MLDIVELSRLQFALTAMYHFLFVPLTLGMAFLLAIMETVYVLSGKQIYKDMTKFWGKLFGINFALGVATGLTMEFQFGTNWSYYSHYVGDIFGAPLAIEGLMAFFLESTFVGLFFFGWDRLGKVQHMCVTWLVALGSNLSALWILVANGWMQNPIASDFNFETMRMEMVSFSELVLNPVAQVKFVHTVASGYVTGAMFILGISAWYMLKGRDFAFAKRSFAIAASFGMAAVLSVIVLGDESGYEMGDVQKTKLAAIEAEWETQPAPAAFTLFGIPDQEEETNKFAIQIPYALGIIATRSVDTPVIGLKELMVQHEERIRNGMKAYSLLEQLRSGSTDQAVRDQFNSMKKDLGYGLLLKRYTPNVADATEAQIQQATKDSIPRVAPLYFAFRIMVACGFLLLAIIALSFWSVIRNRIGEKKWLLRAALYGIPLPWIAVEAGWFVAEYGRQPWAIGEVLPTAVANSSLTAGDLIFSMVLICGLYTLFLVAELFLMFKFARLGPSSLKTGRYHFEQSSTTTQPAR
The series is described as above. Conditions: both partners purified.

B1: E. coli cytochrome bd-I subunit CydX (natural protein)
chain: MWYFAWILGTLLACSFGVITALALEHVESGKAGQEDI
notes: CydX, single-helix subunit of E. coli cytochrome bd-I (Ecbd)
For B1, the binding result in series [1] and in series [2] was “binds” throughout.
